{"source": "patent US20220308072A1", "key": {"[1]": {"target": "Recombinant, his tagged full length human frataxin protein (Abcam ab95502) (human) (UniProt Q16595)", "sequence (Q16595 42-210)": "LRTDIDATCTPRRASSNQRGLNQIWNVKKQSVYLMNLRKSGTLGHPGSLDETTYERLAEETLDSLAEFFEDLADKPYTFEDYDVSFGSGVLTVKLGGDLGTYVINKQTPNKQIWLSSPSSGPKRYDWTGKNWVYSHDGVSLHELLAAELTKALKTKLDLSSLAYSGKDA", "experiment": "Simoa sandwich 2-step; capture Ab-2"}, "[2]": {"target": "Recombinant, his tagged full length human frataxin protein (Abcam ab95502) (human) (UniProt Q16595)", "experiment": "Simoa sandwich 3-step; capture Ab-2"}, "[3]": {"target": "Recombinant, his tagged full length human frataxin protein (Abcam ab95502) (human) (UniProt Q16595)", "experiment": "Simoa sandwich 3-step; capture Ab-1"}, "[4]": {"target": "Recombinant, his tagged full length human frataxin protein (Abcam ab95502) (human) (UniProt Q16595)", "experiment": "Simoa sandwich 2-step (120 min-5 min); capture Ab-1"}, "[5]": {"target": "Recombinant, his tagged full length human frataxin protein (Abcam ab95502) (human) (UniProt Q16595)", "experiment": "Simoa sandwich 3-step; capture Ab-3; frataxin 100 pg/mL"}, "[6]": {"target": "Recombinant, his tagged full length human frataxin protein (Abcam ab95502) (human) (UniProt Q16595)", "experiment": "Simoa sandwich 3-step; capture Ab-1; frataxin 100 pg/mL"}, "[7]": {"target": "Recombinant, his tagged full length human frataxin protein (Abcam ab95502) (human) (UniProt Q16595)", "experiment": "Simoa sandwich 2-step; capture Ab-1; frataxin 100 pg/mL"}, "[8]": {"target": "Recombinant, his tagged full length human frataxin protein (Abcam ab95502) (human) (UniProt Q16595)", "experiment": "Simoa sandwich 3-step; capture Ab-5; frataxin 1000 pg/mL"}, "[9]": {"target": "Recombinant, his tagged full length human frataxin protein (Abcam ab95502) (human) (UniProt Q16595)", "experiment": "Simoa sandwich 2-step; capture Ab-4; frataxin 1000 pg/mL"}, "[10]": {"target": "Recombinant, his tagged full length human frataxin protein (Abcam ab95502) (human) (UniProt Q16595)", "experiment": "Simoa sandwich 3-step; capture Ab-4; frataxin 1000 pg/mL"}, "[11]": {"target": "Recombinant, his tagged full length human frataxin protein (Abcam ab95502) (human) (UniProt Q16595)", "experiment": "Simoa sandwich 3-step; capture Ab-1; frataxin 1000 pg/mL"}, "[12]": {"target": "Recombinant, his tagged full length human frataxin protein (Abcam ab95502) (human) (UniProt Q16595)", "experiment": "Simoa sandwich 2-step; capture Ab-1; frataxin 6.17 pg/mL"}, "[13]": {"target": "Recombinant, his tagged full length human frataxin protein (Abcam ab95502) (human) (UniProt Q16595)", "experiment": "Simoa sandwich 2-step; capture Ab-2; frataxin 2.06 pg/mL"}, "[14]": {"target": "Recombinant, his tagged full length human frataxin protein (Abcam ab95502) (human) (UniProt Q16595)", "experiment": "Simoa sandwich 3-step; capture Ab-2; frataxin 10000 pg/mL"}, "[15]": {"target": "Recombinant, his tagged full length human frataxin protein (Abcam ab95502) (human) (UniProt Q16595)", "experiment": "Simoa sandwich 2-step; capture Ab-2; frataxin 0.686 pg/mL"}, "[16]": {"target": "Recombinant, his tagged full length human frataxin protein (Abcam ab95502) (human) (UniProt Q16595)", "experiment": "Simoa sandwich; capture Ab-1; no helper beads; frataxin 167 pg/mL"}, "[17]": {"target": "Recombinant, his tagged full length human frataxin protein (Abcam ab95502) (human) (UniProt Q16595)", "experiment": "Simoa sandwich; capture Ab-1; no helper beads; frataxin 2.06 pg/mL"}, "[18]": {"target": "Recombinant, his tagged full length human frataxin protein (Abcam ab95502) (human) (UniProt Q16595)", "experiment": "Simoa sandwich 2-step (120 min-5 min); capture Ab-1; frataxin 8.23 pg/mL"}, "[19]": {"target": "Recombinant, his tagged full length human frataxin protein (Abcam ab95502) (human) (UniProt Q16595)", "experiment": "Simoa sandwich 2-step (120 min-5 min); capture Ab-1; Diluent 1 + 5% NCS; frataxin 200 pg/mL"}, "[20]": {"target": "Recombinant, his tagged full length human frataxin protein (Abcam ab95502) (human) (UniProt Q16595)", "experiment": "Simoa sandwich 2-step (120 min-5 min); capture Ab-1; Diluent 1 + 5% NCS; frataxin 22.2 pg/mL"}, "[21]": {"target": "Recombinant, his tagged full length human frataxin protein (Abcam ab95502) (human) (UniProt Q16595)", "experiment": "Simoa sandwich 2-step (120 min-5 min); capture Ab-1; Diluent 1 + 10% NCS; frataxin 333 pg/mL"}, "[22]": {"target": "Recombinant, his tagged full length human frataxin protein (Abcam ab95502) (human) (UniProt Q16595)", "experiment": "Simoa sandwich 2-step (120 min-5 min); capture Ab-1; Diluent 1 + 5% NCS; frataxin 0.274 pg/mL"}, "[23]": {"target": "Recombinant, his tagged full length human frataxin protein (Abcam ab95502) (human) (UniProt Q16595)", "experiment": "Simoa sandwich 2-step (120 min-5 min); capture Ab-1; Diluent 1 + 10% NCS; frataxin 2.47 pg/mL"}, "[24]": {"target": "Recombinant, his tagged full length human frataxin protein (Abcam ab95502) (human) (UniProt Q16595)", "experiment": "Simoa sandwich 2-step (120 min-5 min); capture Ab-1; Diluent 1 + 10% NCS; frataxin 1000 pg/mL"}, "[25]": {"target": "Recombinant, his tagged full length human frataxin protein (Abcam ab95502) (human) (UniProt Q16595)", "experiment": "Simoa sandwich 2-step (120 min-5 min); capture Ab-1; Diluent 1 + 10% NCS; frataxin 0.274 pg/mL"}, "[26]": {"target": "Recombinant, his tagged full length human frataxin protein (Abcam ab95502) (human) (UniProt Q16595)", "experiment": "Simoa sandwich 2-step (120 min-5 min); capture Ab-1; Diluent 1 + 10% NCS; frataxin 0.823 pg/mL"}}}
{"substance": "Ab-3, mouse monoclonal [18A5DB1] to Frataxin (Abcam ab110328) (antibody)", "values": [{"measurement": "LOD", "setting": "[1]", "result": 0.27, "unit": "pg/mL"}, {"measurement": "LOD", "setting": "[2]", "result": 0.65, "unit": "pg/mL"}, {"measurement": "LOD", "setting": "[3]", "result": 0.59, "unit": "pg/mL"}, {"measurement": "LOD", "setting": "[4]", "result": 0.465, "unit": "pg/mL"}, {"measurement": "Ave AEB", "setting": "[5]", "result": 0.0152, "unit": "AEB"}, {"measurement": "S/B", "setting": "[5]", "result": 3.21}, {"measurement": "Ave AEB", "setting": "[6]", "result": 2.47, "unit": "AEB"}, {"measurement": "S/B", "setting": "[6]", "result": 50}, {"measurement": "Ave AEB", "setting": "[7]", "result": 7.11, "unit": "AEB"}, {"measurement": "S/B", "setting": "[7]", "result": 88.8}, {"measurement": "Ave AEB", "setting": "[8]", "result": 22.9, "unit": "AEB"}, {"measurement": "S/B", "setting": "[8]", "result": 120}, {"measurement": "Ave AEB", "setting": "[9]", "result": 23.7, "unit": "AEB"}, {"measurement": "S/B", "setting": "[9]", "result": 193}, {"measurement": "Ave AEB", "setting": "[10]", "result": 25.2, "unit": "AEB"}, {"measurement": "S/B", "setting": "[10]", "result": 215}, {"measurement": "Ave AEB", "setting": "[11]", "result": 19.6, "unit": "AEB"}, {"measurement": "S/B", "setting": "[11]", "result": 333}, {"measurement": "Ave AEB", "setting": "[12]", "result": 0.737, "unit": "AEB"}, {"measurement": "S/B", "setting": "[12]", "result": 7.1}, {"measurement": "Ave AEB", "setting": "[13]", "result": 0.318, "unit": "AEB"}, {"measurement": "S/B", "setting": "[13]", "result": 3.33}, {"measurement": "Ave AEB", "setting": "[14]", "result": 32.2, "unit": "AEB"}, {"measurement": "S/B", "setting": "[14]", "result": 725}, {"measurement": "Ave AEB", "setting": "[15]", "result": 0.165, "unit": "AEB"}, {"measurement": "S/B", "setting": "[15]", "result": 1.73}, {"measurement": "AEB Rep1", "setting": "[16]", "result": 2.42, "unit": "AEB"}, {"measurement": "AEB Rep2", "setting": "[16]", "result": 2.1, "unit": "AEB"}, {"measurement": "Ave AEB", "setting": "[16]", "result": 2.26, "unit": "AEB"}, {"measurement": "S/B", "setting": "[16]", "result": 100}, {"measurement": "AEB Rep1", "setting": "[17]", "result": 0.0405, "unit": "AEB"}, {"measurement": "AEB Rep2", "setting": "[17]", "result": 0.043, "unit": "AEB"}, {"measurement": "Ave AEB", "setting": "[17]", "result": 0.0418, "unit": "AEB"}, {"measurement": "S/B", "setting": "[17]", "result": 1.85}, {"measurement": "AEB rep1", "setting": "[18]", "result": 0.0466, "unit": "AEB"}, {"measurement": "AEB rep2", "setting": "[18]", "result": 0.048, "unit": "AEB"}, {"measurement": "AEB rep3", "setting": "[18]", "result": 0.0517, "unit": "AEB"}, {"measurement": "Ave AEB", "setting": "[18]", "result": 0.0487, "unit": "AEB"}, {"measurement": "S/B", "setting": "[18]", "result": 5.91}, {"measurement": "Ave AEB", "setting": "[19]", "result": 4.24, "unit": "AEB"}, {"measurement": "S/B", "setting": "[19]", "result": 235}, {"measurement": "Ave AEB", "setting": "[20]", "result": 0.395, "unit": "AEB"}, {"measurement": "S/B", "setting": "[20]", "result": 21.9}, {"measurement": "Ave AEB", "setting": "[21]", "result": 1.56, "unit": "AEB"}, {"measurement": "S/B", "setting": "[21]", "result": 145}, {"measurement": "Ave AEB", "setting": "[22]", "result": 0.0228, "unit": "AEB"}, {"measurement": "S/B", "setting": "[22]", "result": 1.26}, {"measurement": "Ave AEB", "setting": "[23]", "result": 0.0444, "unit": "AEB"}, {"measurement": "S/B", "setting": "[23]", "result": 2.44}, {"measurement": "Ave AEB", "setting": "[24]", "result": 5.18, "unit": "AEB"}, {"measurement": "S/B", "setting": "[24]", "result": 482}, {"measurement": "Ave AEB", "setting": "[25]", "result": 0.023, "unit": "AEB"}, {"measurement": "S/B", "setting": "[25]", "result": 1.27}, {"measurement": "Ave AEB", "setting": "[26]", "result": 0.0296, "unit": "AEB"}, {"measurement": "S/B", "setting": "[26]", "result": 1.63}]}
